# Data published in US20200199241A1 (Chugai, published 2020).
# Positions count from the first letter of the chain named. In names and notes the source's numbering stands.
# T1: human FcγRIIa(H) (human, UniProt P12318 36-217)
# T1 construct: also called FcgRIIaH; FcγRIIa type H
# T1 sequence: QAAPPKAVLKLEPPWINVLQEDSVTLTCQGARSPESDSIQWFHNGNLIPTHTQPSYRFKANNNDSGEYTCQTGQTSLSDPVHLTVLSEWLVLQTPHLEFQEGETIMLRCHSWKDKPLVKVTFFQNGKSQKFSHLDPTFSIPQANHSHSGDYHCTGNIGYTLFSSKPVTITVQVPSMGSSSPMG
# T2: human FcγRIIa(R) (human, UniProt P12318 36-217)
# T2 construct: also called FcgRIIaR; FcγRIIa type R
# T2 chain: T1 sequence with H133R
# T3: human FcγRIIb (human, UniProt P31994 43-217, limits assumed)
# T3 construct: also called FcgRIIb
# T3 sequence: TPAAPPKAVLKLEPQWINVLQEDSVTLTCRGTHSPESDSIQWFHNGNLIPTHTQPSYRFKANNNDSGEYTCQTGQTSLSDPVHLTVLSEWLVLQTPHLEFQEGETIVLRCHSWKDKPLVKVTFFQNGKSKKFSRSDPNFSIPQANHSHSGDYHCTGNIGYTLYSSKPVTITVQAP
# B1: GpH7-B3 variant E269K/GpL16-k0 (antibody, human IgG1)
# heavy: not shown
# light: DIVMTQSPLSLPVTPGEPASISCQASESLVHSNRNTYLHWYLQKPGQSPQLLIYKVSNRFSGVPDRFSGSGSGTDFTLKISRVEAEDVGVYYCSQNTHVPPTFGQGTKVEIE
# notes: copies: 2 + 2
# B2: GpH7-B3 variant P238E/GpL16-k0 (antibody, human IgG1)
# heavy: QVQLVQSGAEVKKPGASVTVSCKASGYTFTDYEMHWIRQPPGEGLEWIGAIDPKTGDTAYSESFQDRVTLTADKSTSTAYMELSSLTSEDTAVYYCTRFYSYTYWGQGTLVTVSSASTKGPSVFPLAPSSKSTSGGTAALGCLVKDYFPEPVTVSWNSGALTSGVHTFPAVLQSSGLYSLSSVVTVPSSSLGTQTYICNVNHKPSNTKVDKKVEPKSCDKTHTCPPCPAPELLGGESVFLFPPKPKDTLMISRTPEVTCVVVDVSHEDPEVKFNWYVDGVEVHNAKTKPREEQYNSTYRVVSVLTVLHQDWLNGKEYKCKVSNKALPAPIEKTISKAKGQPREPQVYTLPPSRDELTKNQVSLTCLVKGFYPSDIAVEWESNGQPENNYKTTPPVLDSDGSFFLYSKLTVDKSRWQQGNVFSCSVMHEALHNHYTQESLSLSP
# light: B1 light
# notes: copies: 2 + 2
# B3: GpH7-B3 variant D265V/GpL16-k0 (antibody, human IgG1)
# heavy: not shown
# light: B1 light
# notes: copies: 2 + 2
# B4: GpH7-B3 variant D265I/GpL16-k0 (antibody, human IgG1)
# heavy: not shown
# light: B1 light
# notes: copies: 2 + 2
# B5: GpH7-B3 variant D265S/GpL16-k0 (antibody, human IgG1)
# heavy: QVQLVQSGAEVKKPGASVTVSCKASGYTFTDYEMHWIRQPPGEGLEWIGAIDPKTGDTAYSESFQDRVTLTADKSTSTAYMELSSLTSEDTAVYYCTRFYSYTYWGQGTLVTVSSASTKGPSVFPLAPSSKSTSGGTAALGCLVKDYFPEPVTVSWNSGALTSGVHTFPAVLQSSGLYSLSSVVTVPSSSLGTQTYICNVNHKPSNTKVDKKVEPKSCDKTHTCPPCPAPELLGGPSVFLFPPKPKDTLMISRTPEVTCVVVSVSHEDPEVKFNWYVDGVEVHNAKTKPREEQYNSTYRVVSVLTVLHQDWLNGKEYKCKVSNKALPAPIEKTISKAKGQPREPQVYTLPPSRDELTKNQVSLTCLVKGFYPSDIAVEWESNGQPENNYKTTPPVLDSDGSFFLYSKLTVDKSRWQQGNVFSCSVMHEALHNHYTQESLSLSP
# light: B1 light
# notes: copies: 2 + 2
# B6: GpH7-B3 variant G237P/GpL16-k0 (antibody, human IgG1)
# heavy: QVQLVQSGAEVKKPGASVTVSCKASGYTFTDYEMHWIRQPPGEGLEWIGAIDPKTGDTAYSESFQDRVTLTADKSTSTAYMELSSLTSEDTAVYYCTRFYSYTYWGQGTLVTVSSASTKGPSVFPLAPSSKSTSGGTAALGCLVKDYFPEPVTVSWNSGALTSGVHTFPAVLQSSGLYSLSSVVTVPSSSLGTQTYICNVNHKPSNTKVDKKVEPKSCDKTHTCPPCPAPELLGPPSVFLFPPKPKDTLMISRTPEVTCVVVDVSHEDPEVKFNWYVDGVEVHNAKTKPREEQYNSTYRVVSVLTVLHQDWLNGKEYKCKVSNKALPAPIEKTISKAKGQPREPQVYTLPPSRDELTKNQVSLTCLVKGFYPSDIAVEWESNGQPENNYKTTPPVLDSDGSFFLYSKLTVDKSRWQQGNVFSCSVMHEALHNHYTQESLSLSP
# light: B1 light
# notes: copies: 2 + 2
# B7: GpH7-B3 variant D265M/GpL16-k0 (antibody, human IgG1)
# heavy: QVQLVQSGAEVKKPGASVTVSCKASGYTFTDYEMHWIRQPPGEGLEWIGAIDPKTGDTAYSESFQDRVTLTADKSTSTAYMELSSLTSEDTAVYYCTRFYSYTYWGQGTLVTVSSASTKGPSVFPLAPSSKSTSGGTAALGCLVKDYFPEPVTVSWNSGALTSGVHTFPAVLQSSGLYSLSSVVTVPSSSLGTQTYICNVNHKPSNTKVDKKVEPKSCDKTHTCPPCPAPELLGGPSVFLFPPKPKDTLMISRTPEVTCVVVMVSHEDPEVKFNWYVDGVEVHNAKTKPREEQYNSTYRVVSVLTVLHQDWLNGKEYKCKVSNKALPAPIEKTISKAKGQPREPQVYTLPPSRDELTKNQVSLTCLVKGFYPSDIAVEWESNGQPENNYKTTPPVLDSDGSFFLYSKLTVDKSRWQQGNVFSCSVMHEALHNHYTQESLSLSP
# light: B1 light
# notes: copies: 2 + 2
# B8: GpH7-B3 variant G237A/GpL16-k0 (antibody, human IgG1)
# heavy: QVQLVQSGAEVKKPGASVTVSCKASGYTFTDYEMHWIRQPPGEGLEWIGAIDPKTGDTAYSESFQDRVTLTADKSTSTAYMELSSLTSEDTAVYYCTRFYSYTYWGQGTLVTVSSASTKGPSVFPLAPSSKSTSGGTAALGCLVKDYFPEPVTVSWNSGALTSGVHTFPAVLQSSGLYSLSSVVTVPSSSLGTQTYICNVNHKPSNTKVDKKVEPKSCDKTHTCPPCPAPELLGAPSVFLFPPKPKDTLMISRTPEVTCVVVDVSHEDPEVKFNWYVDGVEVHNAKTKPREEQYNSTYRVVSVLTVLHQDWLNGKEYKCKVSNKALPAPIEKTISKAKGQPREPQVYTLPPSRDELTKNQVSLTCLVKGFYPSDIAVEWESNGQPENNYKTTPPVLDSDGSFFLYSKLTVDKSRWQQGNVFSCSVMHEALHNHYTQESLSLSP
# light: B1 light
# notes: copies: 2 + 2
# B9: GpH7-B3 variant E269H/GpL16-k0 (antibody, human IgG1)
# heavy: not shown
# light: B1 light
# notes: copies: 2 + 2
# B10: GpH7-B3 variant D270G/GpL16-k0 (antibody, human IgG1)
# heavy: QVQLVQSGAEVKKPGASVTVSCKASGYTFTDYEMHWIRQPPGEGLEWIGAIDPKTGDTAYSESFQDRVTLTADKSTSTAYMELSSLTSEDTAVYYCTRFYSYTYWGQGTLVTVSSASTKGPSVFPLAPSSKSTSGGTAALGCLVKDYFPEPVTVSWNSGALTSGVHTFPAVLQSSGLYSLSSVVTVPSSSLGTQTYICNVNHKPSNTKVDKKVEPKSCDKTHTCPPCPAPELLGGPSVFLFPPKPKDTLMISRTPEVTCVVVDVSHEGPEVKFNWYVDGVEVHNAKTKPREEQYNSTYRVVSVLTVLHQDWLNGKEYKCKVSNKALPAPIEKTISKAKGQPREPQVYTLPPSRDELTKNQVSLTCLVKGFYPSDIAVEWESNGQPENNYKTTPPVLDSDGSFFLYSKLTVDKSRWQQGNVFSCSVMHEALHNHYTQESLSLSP
# light: B1 light
# notes: copies: 2 + 2
# B11: GpH7-B3 variant V266F/GpL16-k0 (antibody, human IgG1)
# heavy: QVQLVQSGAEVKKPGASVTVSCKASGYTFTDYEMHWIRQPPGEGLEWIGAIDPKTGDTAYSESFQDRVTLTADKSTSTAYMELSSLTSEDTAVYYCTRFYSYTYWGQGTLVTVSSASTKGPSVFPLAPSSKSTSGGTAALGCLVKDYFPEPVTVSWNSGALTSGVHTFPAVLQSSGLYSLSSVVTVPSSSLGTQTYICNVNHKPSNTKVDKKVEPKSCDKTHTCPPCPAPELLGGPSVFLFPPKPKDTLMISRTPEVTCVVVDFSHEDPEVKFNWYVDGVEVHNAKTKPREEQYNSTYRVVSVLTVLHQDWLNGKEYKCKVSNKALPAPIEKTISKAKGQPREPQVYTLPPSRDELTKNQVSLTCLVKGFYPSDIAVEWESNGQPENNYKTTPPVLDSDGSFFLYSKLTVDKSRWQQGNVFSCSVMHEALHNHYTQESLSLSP
# light: B1 light
# notes: copies: 2 + 2
# B12: GpH7-B3 variant D265W/GpL16-k0 (antibody, human IgG1)
# heavy: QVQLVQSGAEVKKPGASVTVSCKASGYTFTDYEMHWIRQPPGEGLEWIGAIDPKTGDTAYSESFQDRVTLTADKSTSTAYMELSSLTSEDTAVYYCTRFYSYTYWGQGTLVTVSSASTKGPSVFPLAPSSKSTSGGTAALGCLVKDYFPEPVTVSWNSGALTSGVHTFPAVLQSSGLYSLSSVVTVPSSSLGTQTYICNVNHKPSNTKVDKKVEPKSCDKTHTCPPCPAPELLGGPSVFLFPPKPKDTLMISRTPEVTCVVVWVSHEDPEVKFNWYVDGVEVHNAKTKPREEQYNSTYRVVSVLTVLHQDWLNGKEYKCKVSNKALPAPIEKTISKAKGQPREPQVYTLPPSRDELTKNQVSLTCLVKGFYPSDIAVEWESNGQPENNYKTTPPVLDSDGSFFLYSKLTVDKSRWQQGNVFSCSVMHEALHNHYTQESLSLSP
# light: B1 light
# notes: copies: 2 + 2
# B13: GpH7-B3 variant G236K/GpL16-k0 (antibody, human IgG1)
# heavy: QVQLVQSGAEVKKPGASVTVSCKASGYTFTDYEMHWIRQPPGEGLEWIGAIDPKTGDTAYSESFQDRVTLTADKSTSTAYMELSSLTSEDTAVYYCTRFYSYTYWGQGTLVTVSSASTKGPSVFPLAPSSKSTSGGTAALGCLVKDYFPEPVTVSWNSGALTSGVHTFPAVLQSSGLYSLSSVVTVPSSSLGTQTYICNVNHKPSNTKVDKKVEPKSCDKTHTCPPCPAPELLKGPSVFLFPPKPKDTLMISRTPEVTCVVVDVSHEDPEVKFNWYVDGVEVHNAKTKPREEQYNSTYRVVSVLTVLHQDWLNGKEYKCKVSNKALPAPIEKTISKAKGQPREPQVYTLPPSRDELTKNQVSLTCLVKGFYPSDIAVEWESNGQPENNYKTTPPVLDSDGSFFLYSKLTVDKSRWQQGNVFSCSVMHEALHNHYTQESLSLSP
# light: B1 light
# notes: copies: 2 + 2
# B14: GpH7-B3 variant D265A/GpL16-k0 (antibody, human IgG1)
# heavy: not shown
# light: B1 light
# notes: copies: 2 + 2
# B15: GpH7-B3 variant E269I/GpL16-k0 (antibody, human IgG1)
# heavy: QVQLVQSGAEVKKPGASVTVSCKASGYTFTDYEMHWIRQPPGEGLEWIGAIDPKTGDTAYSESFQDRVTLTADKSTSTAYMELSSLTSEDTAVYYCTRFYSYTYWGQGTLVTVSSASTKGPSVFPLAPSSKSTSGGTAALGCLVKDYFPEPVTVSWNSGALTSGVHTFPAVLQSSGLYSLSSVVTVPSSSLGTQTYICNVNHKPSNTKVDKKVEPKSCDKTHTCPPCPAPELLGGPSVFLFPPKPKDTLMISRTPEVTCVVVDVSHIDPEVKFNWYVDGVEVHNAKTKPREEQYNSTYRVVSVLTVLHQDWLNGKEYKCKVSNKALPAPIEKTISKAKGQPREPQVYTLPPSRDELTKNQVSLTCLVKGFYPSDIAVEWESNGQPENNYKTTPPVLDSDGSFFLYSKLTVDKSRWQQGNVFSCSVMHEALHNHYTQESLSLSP
# light: B1 light
# notes: copies: 2 + 2
# Target: T4, human FcγRIIIa(F) (human, UniProt P08637 17-208, limits assumed)
# T4 construct: also called FcgRIIIaF; allotype F158
# T4 sequence (P08637 other isoform, or with tags, fused parts or gaps limits assumed): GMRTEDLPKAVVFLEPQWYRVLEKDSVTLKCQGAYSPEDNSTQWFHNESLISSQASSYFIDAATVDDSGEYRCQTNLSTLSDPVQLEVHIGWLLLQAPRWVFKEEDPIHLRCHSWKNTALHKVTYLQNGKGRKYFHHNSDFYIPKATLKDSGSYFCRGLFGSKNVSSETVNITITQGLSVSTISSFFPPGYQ
# Assay: SPR (Biacore);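 further: antibody variants captured on sensor chip, Fcγ receptor flowed over at 25 °C, bound receptor normalized to amount of captured antibody, expressed relative to reference antibody set as 100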
# Experimental: (§1) Interaction between each modified antibody and Fcγ receptor prepared in the manner described above was analyzed using the BIACORE™ T100 surface plasmon resonance system (GE Healthcare), BIACORE™ T200 surface plasmon resonance system (GE Healthcare), BIACORE™ A100 surface plasmon resonance system or BIACORE™ 4000 surface plasmon resonance system. HBS-EP+ (GE Healthcare) was used for the running buffer, and measurements were carried out at 25° C. The chips used were chips in which antigen peptides, Protein A (Thermo Scientific), Protein A/G (Thermo Scientific) or Protein L (ACTIGEN® protein (Alltech or BioVision) were immobilized on the Series S Sensor Chip CMS (GE Healthcare) or Series S Sensor Chip CM4 (GE Healthcare) by amine coupling, or chips in which preliminarily biotinylated antigen peptides were allowed to interact and then immobilized on the Series S Sensor Chip SA (certified) (GE Healthcare). The target antibodies were captured on these sensor chips, Fcγ receptor diluted with the running buffer was allowed to interact, followed by measurement of the amount of bound antibody. The amounts bound were compared between antibodies. However, since the amount of Fcγ receptor bound depends on the amount of captured antibody, the values used for comparison were first corrected by dividing the amount of Fcγ receptor bound by the captured amount of each antibody. Through reaction with 10 mM glycine-HCl at pH 1.5, the sensor chips were regenerated by washing off antibody captured on the sensor chips and used repeatedly.
# (§2) Binding strength was evaluated according to the following method based on the results of analyzing the interaction with each FcγR. […] That value was then further multiplied by 100, and the resulting value was used as an indicator of relative binding activity to each FcγR.
row,relative binding activity,Binder
1,11 % of GpH7-B3/GpL16-k0,B1
2,1 % of GpH7-B3/GpL16-k0,B2
3,-1 % of GpH7-B3/GpL16-k0,B3
4,-1 % of GpH7-B3/GpL16-k0,B4
5,-2 % of GpH7-B3/GpL16-k0,B5
6,0 % of GpH7-B3/GpL16-k0,B6
7,-1 % of GpH7-B3/GpL16-k0,B7
8,4 % of GpH7-B3/GpL16-k0,B8
9,12 % of GpH7-B3/GpL16-k0,B9
10,6 % of GpH7-B3/GpL16-k0,B10
11,2 % of GpH7-B3/GpL16-k0,B11
12,-2 % of GpH7-B3/GpL16-k0,B12
13,1 % of GpH7-B3/GpL16-k0,B13
14,-1 % of GpH7-B3/GpL16-k0,B14
15,10 % of GpH7-B3/GpL16-k0,B15

# Target: T1, human FcγRIIa(H)
# Assay: SPR (Biacore);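 further: antibody variants captured on sensor chip, Fcγ receptor flowed over at 25 °C, bound receptor normalized to amount of captured antibody, expressed relative to reference antibody set as 100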
# Experimental: as §1, §2
row,relative binding activity,Binder
1,22 % of GpH7-B3/GpL16-k0,B1
2,2 % of GpH7-B3/GpL16-k0,B2
3,0 % of GpH7-B3/GpL16-k0,B3
4,0 % of GpH7-B3/GpL16-k0,B4
5,2 % of GpH7-B3/GpL16-k0,B5
6,0 % of GpH7-B3/GpL16-k0,B6
7,0 % of GpH7-B3/GpL16-k0,B7
8,24 % of GpH7-B3/GpL16-k0,B9
9,29 % of GpH7-B3/GpL16-k0,B10
10,0 % of GpH7-B3/GpL16-k0,B12
11,18 % of GpH7-B3/GpL16-k0,B13
12,5 % of GpH7-B3/GpL16-k0,B14
13,32 % of GpH7-B3/GpL16-k0,B15

# Target: T5, human FcγRIa (human, UniProt P12314 16-292, limits assumed)
# T5 construct: also called FcgRIa; FcγRI (CD64)
# T5 sequence (P12314 16-292 limits assumed): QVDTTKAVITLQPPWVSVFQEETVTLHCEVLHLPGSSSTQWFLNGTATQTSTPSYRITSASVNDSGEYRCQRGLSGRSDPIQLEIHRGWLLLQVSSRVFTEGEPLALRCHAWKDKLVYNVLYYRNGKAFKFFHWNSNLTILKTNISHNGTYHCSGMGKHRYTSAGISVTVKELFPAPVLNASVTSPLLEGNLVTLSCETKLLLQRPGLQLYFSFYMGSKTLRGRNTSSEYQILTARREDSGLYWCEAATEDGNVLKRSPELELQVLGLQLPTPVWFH
# Assay: SPR (Biacore);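 further: antibody variants captured on sensor chip, Fcγ receptor flowed over at 25 °C, bound receptor normalized to amount of captured antibody, expressed relative to reference antibody set as 100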
# Experimental: as §1, §2
row,relative binding activity,Binder
1,71 % of GpH7-B3/GpL16-k0,B1
2,95 % of GpH7-B3/GpL16-k0,B2
3,3 % of GpH7-B3/GpL16-k0,B3
4,2 % of GpH7-B3/GpL16-k0,B4
5,20 % of GpH7-B3/GpL16-k0,B5
6,3 % of GpH7-B3/GpL16-k0,B6
7,17 % of GpH7-B3/GpL16-k0,B7
8,45 % of GpH7-B3/GpL16-k0,B8
9,95 % of GpH7-B3/GpL16-k0,B9
10,82 % of GpH7-B3/GpL16-k0,B10
11,80 % of GpH7-B3/GpL16-k0,B11
12,3 % of GpH7-B3/GpL16-k0,B12
13,13 % of GpH7-B3/GpL16-k0,B13
14,36 % of GpH7-B3/GpL16-k0,B14
15,94 % of GpH7-B3/GpL16-k0,B15

# Target: T2, human FcγRIIa(R)
# Assay: SPR (Biacore);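 further: antibody variants captured on sensor chip, Fcγ receptor flowed over at 25 °C, bound receptor normalized to amount of captured antibody, expressed relative to reference antibody set as 100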
# Experimental: as §1, §2
row,relative binding activity,Binder
1,4 % of GpH7-B3/GpL16-k0,B1
2,21 % of GpH7-B3/GpL16-k0,B2
3,-1 % of GpH7-B3/GpL16-k0,B3
4,-1 % of GpH7-B3/GpL16-k0,B4
5,0 % of GpH7-B3/GpL16-k0,B5
6,-1 % of GpH7-B3/GpL16-k0,B7
7,85 % of GpH7-B3/GpL16-k0,B8
8,12 % of GpH7-B3/GpL16-k0,B9
9,3 % of GpH7-B3/GpL16-k0,B10
10,-1 % of GpH7-B3/GpL16-k0,B12
11,3 % of GpH7-B3/GpL16-k0,B14
12,16 % of GpH7-B3/GpL16-k0,B15

# Target: T3, human FcγRIIb
# Assay: SPR (Biacore)
# Experimental: as §1, §2
row,relative binding activity,Binder
1,1 % of GpH7-B3/GpL16-k0,B1
2,-1 % of GpH7-B3/GpL16-k0,B3
3,-2 % of GpH7-B3/GpL16-k0,B4
4,1 % of GpH7-B3/GpL16-k0,B5
5,5 % of GpH7-B3/GpL16-k0,B6
6,-2 % of GpH7-B3/GpL16-k0,B7
7,49 % of GpH7-B3/GpL16-k0,B8
8,3 % of GpH7-B3/GpL16-k0,B10
9,88 % of GpH7-B3/GpL16-k0,B11
10,-2 % of GpH7-B3/GpL16-k0,B12
11,19 % of GpH7-B3/GpL16-k0,B13
12,1 % of GpH7-B3/GpL16-k0,B14
